The labels stand for the following.
B1: Escherichia coli DEAD box RNA helicase RhlB, wild type (enzyme, E. coli, UniProt P0A8J8 1-421, looked up)
chain: MSKTHLTEQKFSDFALHPKVVEALEKKGFHNCTPIQALALPLTLAGRDVAGQAQTGTGKTMAFLTSTFHYLLSHPAIADRKVNQPRALIMAPTRELAVQIHADAEPLAEATGLKLGLAYGGDGYDKQLKVLESGVDILIGTTGRLIDYAKQNHINLGAIQVVVLDEADRMYDLGFIKDIRWLFRRMPPANQRLNMLFSATLSYRVRELAFEQMNNAEYIEVEPEQKTGHRIKEELFYPSNEEKMRLLQTLIEEEWPDRAIIFANTKHRCEEIWGHLAADGHRVGLLTGDVAQKKRLRILDEFTRGDLDILVATDVAARGLHIPAVTHVFNYDLPDDCEDYVHRIGRTGRAGASGHSISLACEEYALNLPAIETYIGHSIPVSKYNPDALMTDLPKPLRLTRPRTGNGPRRTGAPRNRRRSG
notes: The same untagged protein from two vectors (pET11a alone; second cloning site of pRSF-Duet-1, NdeI/XhoI, in pRneRhlB); also called WT RhlB; Helicase B; source: E. coli BL21(DE3), pET11a, purified (published procedure plus S200 size exclusion)
B2: N-terminal His6-tagged RNase E residues 696-762 (domain or fragment, E. coli, UniProt P21513 696-762, looked up)
chain: ALNVEEQSVQETEQEERVRPVQPRRKQRQLNQKVRYEQSVAEEAVVAPVVEETVAAEPIVQEAPAPR
notes: Cloned BamHI/SalI in the first cloning site of pRSF-Duet-1; also called RNase E peptide; source: E. coli, pRSF-Duet-1, purified (Ni-NTA, S200); also co-expressed with RhlB from pRneRhlB in E. coli BL21(DE3), co-purified (Ni-NTA, SP, S200); not shown: His6, N-terminal, kept

Test [1] has as its target RNase E 628-843 (Escherichia coli) (UniProt P21513). To be noted: cited from earlier work.
For test [2], the target named is B2. Put plainly: SEC; co-expressed in E. coli from a di-cistronic vector; His6-RNase E-(696-762) held on Ni-NTA, then SP column and S200 size exclusion; fractions on SDS-PAGE. As to conditions: partners not purified.
Test [3] concerns the target RhlB S381A (E. coli).
Test [4] addresses B1. Briefly: native MS; nanoflow ESI under non-dissociating conditions; co-expressed complex after size exclusion chromatography, 5-20 uM, 250 mM ammonium acetate; MS/MS of the +15 ion. As to conditions: both partners purified. On the technique in general: SEC sorts molecules by how far they enter the pores of the column.
The target of a further test is RhlB H320D (E. coli). Briefly: ITC; 300 uM RNase E-(696-762) in the syringe titrated into 20 uM WT RhlB or variant in the cell; 25 C; 50 mM potassium phosphate pH 7.4, 100 mM NaCl, 1 mM dithiothreitol (methods; the table's caption says 100 mM KPi, 50 mM NaCl); 1:1 model; Ka are lower limits.
Test [5] concerns the target RhlB S381A (E. coli). The test is described as above.
Test [6] addresses B1. Described as above. As to conditions: both partners purified.

RNase E 628-843 (Escherichia coli), sequence (P21513 628-843): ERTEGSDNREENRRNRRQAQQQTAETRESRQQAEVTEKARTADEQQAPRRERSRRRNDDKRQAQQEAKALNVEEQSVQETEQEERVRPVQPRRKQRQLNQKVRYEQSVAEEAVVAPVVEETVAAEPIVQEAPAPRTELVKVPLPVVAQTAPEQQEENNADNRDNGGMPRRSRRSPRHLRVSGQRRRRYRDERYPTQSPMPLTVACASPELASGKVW

For RhlB (from UniProt P0A8J8), the dissociation constant Kd – broadly, the free concentration of one partner at which half of the binding sites on the other are occupied at equilibrium, for simple one-to-one binding – in test [1] was 50 nM.

With B1, the stoichiometry N – broadly, a count of units in the complex or per binding partner – in test [2] is approximately 1.

Consider B2, for which the ATPase activity of S381A RhlB with RNase E-(696-762) and bulk S. cerevisiae RNA (S381A RhlB alone: ≤0.5) (mol Pi/min/mol protein) with RhlB S381A (E. coli) [3] came out at 9.4. Further, the “stoichiometry N” value in test [4] was 1; with RhlB H320D (E. coli), 0.83; with RhlB S381A (E. coli) [5], 1.2; in test [6] it was 0.92. Further, the Ka with RhlB H320D (E. coli) was more than 7e+07 M⁻¹; with RhlB S381A (E. coli) [5], more than 8e+07 M⁻¹; in test [6], not below 1.1e+08 M⁻¹. Besides, the figures for the dH (in the test with RhlB H320D (E. coli); with RhlB S381A (E. coli) [5]; in test [6]) were -29 kcal/mol, -23.3 kcal/mol and -27.6 kcal/mol, respectively.

The record behind these values is publication PMC7611231, “Allosteric Activation of the ATPase Activity of the Escherichia coli RhlB RNA Helicase*” (The Journal of biological chemistry, 2007).
